In this assay the target is Sulfolobus solfataricus poly(ADP-ribose) polymerase-like thermoprotein (PARPSso) (S. solfataricus). Kind of assay: SDS-PAGE band shift with silver staining; PARPSso (3 ug, 65 pmol) mixed with Sso7 at 1:0.5, 1:1 and 1:3 mol/mol in 10 mM Na-phosphate/10 mM EDTA pH 7.5, 80 °C for 20 min (once at 45 °C); 5-12% gradient SDS-PAGE.
Sequence of Sulfolobus solfataricus poly(ADP-ribose) polymerase-like thermoprotein (PARPSso) (S. solfataricus) (B3EWG9 whole entry): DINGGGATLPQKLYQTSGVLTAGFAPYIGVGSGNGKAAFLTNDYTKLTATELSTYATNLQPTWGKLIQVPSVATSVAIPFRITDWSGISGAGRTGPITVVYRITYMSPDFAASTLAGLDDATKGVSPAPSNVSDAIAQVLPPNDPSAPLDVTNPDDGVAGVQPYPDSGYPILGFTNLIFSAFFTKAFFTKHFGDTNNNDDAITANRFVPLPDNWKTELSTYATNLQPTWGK

Consider “Sso7 protein (from UniProt P39476 1-64) (natural protein)”, for which the stoichiometry N (in general, the number of molecules, sites or subunits per partner or assembly) is 3.

(Values after publication PMC7599888.)
